IntAct's records for PubMed 23236153

B1: Pre-mRNA-splicing factor CWC22 homolog (Homo sapiens), Q9HCG8 (parent)
chain: MKSSVAQIKPSSGHDRRENLNSYQRNSSPEDRYEEQERSPRDRDYFDYSRSDYEHSRRGRSYDSSMESRNRDREKRRERERDTDRKRSRKSPSPGRRNPETSVTQSSSAQDEPATKKKKDELDPLLTRTGGAYIPPAKLRMMQEQITDKNSLAYQRMSWEALKKSINGLINKVNISNISIIIQELLQENIVRGRGLLSRSVLQAQSASPIFTHVYAALVAIINSKFPQIGELILKRLILNFRKGYRRNDKQLCLTASKFVAHLINQNVAHEVLCLEMLTLLLERPTDDSVEVAIGFLKECGLKLTQVSPRGINAIFERLRNILHESEIDKRVQYMIEVMFAVRKDGFKDHPIILEGLDLVEEDDQFTHMLPLEDDYNPEDVLNVFKMDPNFMENEEKYKAIKKEILDEGDTDSNTDQDAGSSEEDEEEEEEEGEEDEEGQKVTIHDKTEINLVSFRRTIYLAIQSSLDFEECAHKLLKMEFPESQTKELCNMILDCCAQQRTYEKFFGLLAGRFCMLKKEYMESFEGIFKEQYDTIHRLETNKLRNVAKMFAHLLYTDSLPWSVLECIKLSEETTTSSSRIFVKIFFQELCEYMGLPKLNARLKDETLQPFFEGLLPRDNPRNTRFAINFFTSIGLGGLTDELREHLKNTPKVIVAQKPDVEQNKSSPSSSSSASSSSESDSSDSDSDSSDSSSESSSEESDSSSISSHSSASANDVRKKGHGKTRSKEVDKLIRNQQTNDRKQKERRQEHGHQETRTERERRSEKHRDQNSSGSNWRDPITKYTSDKDVPSERNNYSRVANDRDQEMHIDLENKHGDPKKKRGERRNSFSENEKHTHRIKDSENFRRKDRSKSKEMNRKHSGSRSDEDRYQNGAERRWEKSSRYSEQSRESKKNQDRRREKSPAKQK

Variants of: B1
Settings: with if4a3_human EIF4A3, P38919
if4a3_human EIF4A3, P38919, sequence (P38919 whole entry): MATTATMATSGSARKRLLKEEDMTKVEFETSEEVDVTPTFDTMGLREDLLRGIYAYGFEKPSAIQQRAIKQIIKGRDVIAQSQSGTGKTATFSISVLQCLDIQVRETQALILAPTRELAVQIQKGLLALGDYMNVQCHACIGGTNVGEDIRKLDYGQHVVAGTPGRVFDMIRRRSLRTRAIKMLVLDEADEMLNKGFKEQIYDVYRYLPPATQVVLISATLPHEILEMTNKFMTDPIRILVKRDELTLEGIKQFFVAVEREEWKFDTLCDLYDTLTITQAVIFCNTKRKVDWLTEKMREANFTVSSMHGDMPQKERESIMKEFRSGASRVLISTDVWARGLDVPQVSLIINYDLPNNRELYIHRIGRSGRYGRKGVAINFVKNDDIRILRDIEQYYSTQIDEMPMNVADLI

effect of a mutation on the interaction	Variant
disrupting interaction strength	N171A;K172A;N174A
decreasing interaction strength	R331A;Y334A
